Data from the Immune Epitope Database (IEDB).
Blank lines part the entries; values can stand above or below the sequence they belong to.

Experiments:
HLA-A*02:01 [1] = assay: IEDB peptide-MHC binding, purified MHC/competitive/fluorescence; ≥ and ≤ were set here for values at or beyond the usual limits of such assays
HLA-A*24:02 = assay: as above
HLA-A*02:02 = assay: IEDB peptide-MHC binding, purified MHC/competitive/radioactivity; filed as Kd, often an IC50 or EC50 that approximates it; ≥ and ≤ were set here for values at or beyond the usual limits of such assays
HLA-A*02:03 = assay: as above
HLA-A*02:06 = assay: as above
HLA-B*35:01 = assay: as above
HLA-A*30:02 = assay: as above
HLA-B*15:01 = assay: IEDB peptide-MHC binding, purified MHC/direct/fluorescence; filed as Kd, often an IC50 or EC50 that approximates it; ≥ and ≤ were set here for values at or beyond the usual limits of such assays
HLA-B*58:01 = assay: as above
HLA-B*51:01 = assay: IEDB peptide-MHC binding, purified MHC/competitive/radioactivity; filed as Kd, often an IC50 or EC50 that approximates it; ≥ and ≤ were set here for values at or beyond the usual limits of such assays
HLA-B*53:01 = assay: as above
HLA-A*02:01 [2] = assay: IEDB peptide-MHC binding, purified MHC/competitive/fluorescence; filed as Kd, often an IC50 or EC50 that approximates it; ≥ and ≤ were set here for values at or beyond the usual limits of such assays
HLA-A*26:01 = assay: as above; settings: source organism: Influenza A virus (A/Sichuan/2/1987(H3N2))
[3] = source organism: Sudan ebolavirus
[4] = source organism: Zaire ebolavirus
[5] = source organism: Vaccinia virus WR
[6] = source organism: Dengue virus 4 Philippines/H241/1956
[7] = source organism: SARS coronavirus Tor2
[8] = source organism: Dengue virus 3 Martinique/1243/1999
[9] = source organism: Mammarenavirus juninense
[10] = source organism: Dengue virus 1 Brazil/97-11/1997
[11] = source organism: Dengue virus 2 Jamaica/1409/1983
[12] = source organism: Mammarenavirus machupoense
[13] = source organism: Haemophilus influenzae
[14] = source organism: Vaccinia virus
[15] = source organism: Lymphocytic choriomeningitis virus (strain Armstrong)

Sequence: AFFLYDRLA
IC50 (HLA-A*02:01 [1]; [3]): 35.8 µM
IC50 (HLA-A*24:02; [3]): ≥ 151 µM

Sequence: RLEELLPAV
IC50 (HLA-A*02:01 [1]; [4]): 1.85 µM

Sequence: IVPDADPPI
Kd (HLA-A*02:02; [5]): 5080 nM
Kd (HLA-A*02:03; [5]): 10.7 µM
Kd (HLA-A*02:06; [5]): 0.274 µM

Sequence: VPLLAMGCY
Kd (HLA-B*35:01; [6]): 0.112 µM

Sequence: MLFTKFFYL
Kd (HLA-A*02:02; [7]): 0.0849 nM
Kd (HLA-A*02:03; [7]): 0.0172 µM
Kd (HLA-A*02:06; [7]): 0.00143 µM

Sequence: AYAQMWSLMY
Kd (HLA-A*30:02; [8]): 0.169 µM

Sequence: KLIADSIDF
Kd (HLA-B*15:01; [9]): 0.0675 µM
Kd (HLA-B*58:01; [9]): 1.62 µM

Sequence: LTTLATIST
IC50 (HLA-A*02:01 [1]; [4]): 7.63 µM

Sequence: GLCNYGGIL
Kd (HLA-A*02:02; [5]): 97.7 nM
Kd (HLA-A*02:03; [5]): 0.125 µM
Kd (HLA-A*02:06; [5]): 1.36 µM

Sequence: LPLPWTSGAS
Kd (HLA-B*35:01; [10]): 0.938 µM
Kd (HLA-B*51:01; [10]): 10.6 µM

Sequence: YGTLIIDEV
IC50 (HLA-A*02:01 [1]; source organism: Variola virus): 3.32 µM

Sequence: LITLILSNKL
Kd (HLA-A*02:02; [5]): 225 nM
Kd (HLA-A*02:03; [5]): 0.293 µM
Kd (HLA-A*02:06; [5]): 0.633 µM

Sequence: IPITAAAWY
Kd (HLA-A*30:02; [11]): 0.00247 µM
Kd (HLA-B*35:01; [11]): 0.00619 µM
Kd (HLA-B*53:01; [11]): 0.0266 µM

Sequence: LAFSIMKSV
Kd (HLA-B*51:01; [8]): 0.155 µM

Sequence: SLVITYCLVT
Kd (HLA-A*02:02; [5]): 286 nM
Kd (HLA-A*02:03; [5]): 0.566 µM
Kd (HLA-A*02:06; [5]): 0.824 µM

Sequence: ILPDKIDGL
Kd (HLA-A*02:02; [5]): 1.04 nM
Kd (HLA-A*02:03; [5]): 0.00345 µM
Kd (HLA-A*02:06; [5]): 0.0431 µM

Sequence: VISTIANSNI
Kd (HLA-A*02:02; [5]): 282 nM
Kd (HLA-A*02:03; [5]): 0.845 µM
Kd (HLA-A*02:06; [5]): 5.16 µM

Sequence: LIFNVKSKLL
Kd (HLA-A*02:02; [5]): 2390 nM
Kd (HLA-A*02:03; [5]): 6.69 µM
Kd (HLA-A*02:06; [5]): ≥ 28.5 µM

Sequence: TQWSLFFFV
Kd (HLA-A*02:02; [7]): 79.6 nM
Kd (HLA-A*02:03; [7]): 0.54 µM
Kd (HLA-A*02:06; [7]): 0.000812 µM

Sequence: NYEAGEWAE
IC50 (HLA-A*24:02; [4]): 13.4 µM

Sequence: GIVRQRVIP
IC50 (HLA-A*24:02; [4]): ≥ 151 µM

Sequence: MKDEPVVFS
IC50 (HLA-A*02:01 [1]; [4]): ≥ 420 µM

Sequence: MAFILGIII
Kd (HLA-A*02:02; [5]): 9530 nM
Kd (HLA-A*02:03; [5]): 9.76 µM
Kd (HLA-A*02:06; [5]): ≥ 32.5 µM

Sequence: GRVNPGTYV
IC50 (HLA-A*24:02; source organism: Variola virus): 0.0743 µM

Kd (HLA-A*02:01 [2]; source organism: Trichodesmium erythraeum IMS101): ≥ 20 µM
Sequence: DIKPDNILL

Sequence: SAIALGVAT
IC50 (HLA-A*02:01 [1]; [4]): ≥ 242 µM

Sequence: RRWGGTCRI
IC50 (HLA-A*24:02; [3]): 0.708 µM

Sequence: SSWAVHWFS
Kd (HLA-A*02:02; [12]): 4640 nM
Kd (HLA-A*02:03; [12]): ≥ 78.1 µM
Kd (HLA-A*02:06; [12]): ≥ 46.8 µM

Sequence: KISVEKIKQT
Kd (HLA-A*02:02; [5]): 1230 nM
Kd (HLA-A*02:03; [5]): 8.96 µM
Kd (HLA-A*02:06; [5]): ≥ 21 µM

Sequence: ETKRNIARHL
Kd (HLA-A*02:02; [5]): ≥ 50000 nM
Kd (HLA-A*02:03; [5]): 12.4 µM
Kd (HLA-A*02:06; [5]): ≥ 69.8 µM

Sequence: YISRDELWA
Kd (HLA-A*02:02; [5]): 333 nM
Kd (HLA-A*02:03; [5]): 0.242 µM
Kd (HLA-A*02:06; [5]): 1.2 µM

Sequence: HLRASTTENA
Kd (HLA-A*02:02; [5]): 488 nM
Kd (HLA-A*02:03; [5]): 0.0379 µM
Kd (HLA-A*02:06; [5]): ≥ 69.8 µM

Sequence: EPETPNMDVI
Kd (HLA-B*53:01; [8]): 10.8 µM

Kd (HLA-B*15:01; [13]): 0.473 µM
Kd (HLA-B*58:01; [13]): 3.04 µM
Sequence: SQKHFDTWW

Sequence: QPENLEYTI
Kd (HLA-B*53:01; source organism: Dengue virus 2 16681-PDK53): 0.028 µM

Sequence: RNLNVTTQS
IC50 (HLA-A*02:01 [1]; [14]): ≥ 558 µM

Sequence: PFIRNPNKM
IC50 (HLA-A*24:02; [5]): 0.0658 µM

Sequence: AKAIITPIV
IC50 (HLA-A*02:01 [1]; source organism: Vaccinia virus Copenhagen): ≥ 147 µM

Sequence: ALMDLLMFS
Kd (HLA-A*02:02; [15]): 0.936 nM
Kd (HLA-A*02:03; [15]): 0.103 µM
Kd (HLA-A*02:06; [15]): 0.0138 µM

Sequence: KLQERLAKL
IC50 (HLA-A*02:01 [1]; source organism: Mycobacterium tuberculosis): 0.1 µM

Sequence: RVILAGPMPV
Kd (HLA-A*02:03; [11]): 0.00776 µM
Kd (HLA-A*02:06; [11]): 0.0319 µM

Sequence: SWHYDQDHPY
Kd (HLA-A*30:02; [11]): ≥ 69.7 µM

Sequence: HAKYMVTDKT
Kd (HLA-A*02:02; [5]): 9030 nM
Kd (HLA-A*02:03; [5]): ≥ 35 µM
Kd (HLA-A*02:06; [5]): ≥ 65.1 µM

Sequence: GVDFQESAD
IC50 (HLA-A*24:02; [4]): ≥ 117 µM

Sequence: WVIILFQRT
IC50 (HLA-A*24:02; [4]): ≥ 1990 µM

Sequence: KLGFDEIKGL
Kd (HLA-A*02:01 [2]; source organism: Variola virus): 0.134 µM

Sequence: KLALITVSGL
Kd (HLA-A*02:03; [6]): 0.00732 µM

Sequence: ITYGACPRY
Kd (HLA-A*26:01): 0.0343 µM

Sequence: YLYQPCDLL
Kd (HLA-A*02:01 [2]; [5]): 0.0002 µM

Sequence: TPQDNQLAY
Kd (HLA-B*35:01; [10]): 0.0103 µM

Sequence: ASDTPSATT
IC50 (HLA-A*02:01 [1]; [4]): ≥ 614 µM

Sequence: GPLRMVLAFI
Kd (HLA-B*51:01; [6]): ≥ 35.5 µM

Sequence: DTDIVNNFI
Kd (HLA-A*02:02; [5]): 9320 nM
Kd (HLA-A*02:03; [5]): 19.4 µM
Kd (HLA-A*02:06; [5]): 15.7 µM

Sequence: LLPLTSLVIT
Kd (HLA-A*02:02; [5]): 999 nM
Kd (HLA-A*02:03; [5]): 1.32 µM
Kd (HLA-A*02:06; [5]): 1.61 µM

Sequence: IVSKCIVQSV
Kd (HLA-A*02:02; [5]): 123 nM
Kd (HLA-A*02:03; [5]): 0.0308 µM
Kd (HLA-A*02:06; [5]): 0.552 µM

Sequence: RSLETDLRS
IC50 (HLA-A*02:01 [1]; [14]): ≥ 158 µM

Sequence: FLAHLQWFA
Kd (HLA-A*02:02; [7]): 0.104 nM
Kd (HLA-A*02:03; [7]): 0.000207 µM
Kd (HLA-A*02:06; [7]): 0.000574 µM

Sequence: MSCDDVVFGI
Kd (HLA-A*02:02; [15]): 1040 nM
Kd (HLA-A*02:03; [15]): 12.1 µM
Kd (HLA-A*02:06; [15]): 0.249 µM

Sequence: NTCKPTILAT
Kd (HLA-A*02:02; [5]): 460 nM
Kd (HLA-A*02:03; [5]): 0.248 µM
Kd (HLA-A*02:06; [5]): 3.92 µM

Sequence: AQFLYLYAL
Kd (HLA-A*02:02; [7]): 0.92 nM
Kd (HLA-A*02:03; [7]): 0.00623 µM
Kd (HLA-A*02:06; [7]): 0.000346 µM

Sequence: DSFLLMLCL
IC50 (HLA-A*24:02; [4]): ≥ 313 µM

Sequence: NTLISSDGA
Kd (HLA-A*02:02; [5]): 7410 nM
Kd (HLA-A*02:03; [5]): 3.57 µM
Kd (HLA-A*02:06; [5]): ≥ 49.4 µM
